Results on 167 variants are retold here after the RNAGym collection of RNA variant scans (doi:10.7554/elife.80360).

To fix the notation:
B1: CPEB3 Ribozyme (parent)
chain: GGGGGCCACAGCAGAAGCGUUCACGUCGCGGCCCCUGUCAGAUUCUGGUGAAUCUGCGAAUUCUGCUGU

The variants in this series derive from B1. Description: self-cleavage, relative activity (ratio to wild type); higher = more cleavage; co-transcriptional.
In the case of G1C G68A, the self-cleavage was 0.304. Take G1C G68C: the self-cleavage came to 0.219.

In the case of G1C G68U, the self-cleavage worked out at 0.297.

G1C C27U: the self-cleavage was determined as 0.131. The figure for G1C C27G is 0.124; for G1C C27A it is 0.211; for G1C G65U it is 0.212. The figure for G1C U44G is 0.151; for G1C U44A it is 0.231; for G1C G17A it is 0.124. The value for G1C G17C was 0.0857; that for G1C G17U was 0.155. For the variant G1C G4A, the self-cleavage was found to be 0.225.

On to G1C G4C, for which the self-cleavage was determined as 0.216. The figure for G1C G3A is 0.174; for G1C G3U it is 0.0766. The value for G1C C22A was 0.0757.

Regarding G1C C22G, the self-cleavage stood at 0.0703. On to G1C A52G, for which the self-cleavage was determined as 0.24.

G1C A52C: the self-cleavage was 0.2. G1C A52U: the self-cleavage turned out to be 0.201.

Regarding G1C A59G, the self-cleavage was determined as 0.26. On to G1C A59C, for which the self-cleavage is 0.27. With G1C A59U, the self-cleavage came to 0.147. The value for G1C U62G was 0.177; that for G1C U62A was 0.279. The value for G1A U20G was 0.0728; that for G1A U20A was 0.0538.

Regarding G1A U20C, the self-cleavage was 0.0855. The value for G1C A8C was 0.221; that for G1C A8U was 0.227. With G1C U20G, the self-cleavage was determined as 0.131. The figure for G1C U20C is 0.098; for G1C C57A it is 0.116; for G1C C57G it is 0.104. In the case of G1C G30C, the self-cleavage came out at 0.174. The value for G1C G30A was 0.192. The figure for G1A G48A is 0.0895; for G1A G48U it is 0.045; for G1U G65C it is 0.0555. The value for G1U G65A was 0.0898; that for G1U G65U was 0.0644. Consider G1U G2A, for which the self-cleavage was found to be 0.0657. For G1U G2C, the self-cleavage is 0.333. The value for G1A G56U was 0.103; that for G1A G56C was 0.0841; that for G1A G56A was 0.0858. The figure for G1C C29G is 0.106. With G1C C29U, the self-cleavage came out at 0.105. The value for G1U C22U was 0.102; that for G1U C22A was 0.0628; that for G1U C22G was 0.0638. The value for G1C U69A was 0.182. G1C G5U: the self-cleavage came to 0.114. The figure for G1C G37C is 0.125. The figure for G1C G37U is 0.101; for G1U U26C it is 0.0437.

G1C G47A: the self-cleavage came out at 0.242.

Consider G1C G47U, for which the self-cleavage was 0.268. The value for G1C G47C was 0.213; that for G1U C12U was 0.124. Take G1U C12G: the self-cleavage was 0.106.

As for G1U A40C, the self-cleavage is 0.0668. For the variant G1U C39A, the self-cleavage stood at 0.123. The value for G1U C39U was 0.0961; that for G1U C32G was 0.09. The figure for G1U C32U is 0.157; for G1U C32A it is 0.201; for G1U C6U it is 0.0906.

As to G1U C6A, the self-cleavage is 0.0884. The figure for G1U C6G is 0.126; for G1A U55A it is 0.059; for G1A U55C it is 0.0976. The figure for G1U G30U is 0.0366; for G1U G30C it is 0.0755; for G1C U21C it is 0.184. The figure for G1C U21G is 0.244; for G1U C27G it is 0.0589. Regarding G1U C27A, the self-cleavage amounted to 0.0657. The figure for G1C G58U is 0.248.

As for G1C G58A, the self-cleavage was 0.172.

Turning to G1C G58C, the self-cleavage amounted to 0.267. The value for G1C A15G was 0.228; that for G1C A15C was 0.266. The figure for G1U G41C is 0.036; for G1U G41U it is 0.116. The figure for G1U G41A is 0.123; for G1C A10G it is 0.21; for G1C C63U it is 0.164. As for G1C C63A, the self-cleavage was found to be 0.199. With G1C G41A, the self-cleavage was found to be 0.19. The figure for G1C G41C is 0.23; for G1U G5C it is 0.0789; for G1C A51U it is 0.192. The value for G1C A51C was 0.149.

With G1C C66A, the self-cleavage came to 0.226. The value for G1C C66U was 0.172. The value for G1U A42C was 0.0921; that for G1U A42U was 0.0891; that for G1U A42G was 0.0976. The figure for G1C U67C is 0.19; for G1C U67A it is 0.193. Turning to G1C G14A, the self-cleavage came to 0.152. Regarding G1C G14U, the self-cleavage is 0.164.

With G1U A23U, the self-cleavage came to 0.108. The figure for G1C U36C is 0.177. The value for G1C U36A was 0.0531; that for G1U U21G was 0.0804. Regarding G1U U21C, the self-cleavage came out at 0.119. The value for G1C C32A was 0.279; that for G1C C32U was 0.327; that for G1U A16C was 0.022. The figure for G1C G25A is 0.0736; for G1C G25U it is 0.0853; for G1C G25C it is 0.103.

On to G1C G28U, for which the self-cleavage turned out to be 0.0985. As for G1C G28C, the self-cleavage came out at 0.12. The value for G1A G28U was 0.0362. The figure for G1U G4C is 0.0734. The value for G1U G4U was 0.127; that for G1U G4A was 0.112; that for G1A U49A was 0.075. Take G1A U49G: the self-cleavage worked out at 0.13. The figure for G1C U55A is 0.189; for G1C U55C it is 0.167; for G1C U38G it is 0.112. As for G1C U38C, the self-cleavage stood at 0.231.

As to G1U G17U, the self-cleavage came to 0.0803.

With G1U U49C, the self-cleavage was 0.0511.

As for G1U U49A, the self-cleavage is 0.124. The value for G1U U49G was 0.152. The value for G1A U62A was 0.0846. The figure for G1A G37U is 0.104; for G1A G37C it is 0.0318. Regarding G1U U44A, the self-cleavage is 0.0951.

Take G1U U44G: the self-cleavage was 0.127. The value for G1U U44C was 0.106; that for G1U U61A was 0.0989; that for G1U U61G was 0.208. The value for G1A G30A was 0.0887; that for G1A G30C was 0.0357; that for G1C G11A was 0.14. The figure for G1C G11C is 0.165; for G1C G11U it is 0.164. In the case of G1U A59U, the self-cleavage was 0.114. With G1U A59G, the self-cleavage was found to be 0.148.

On to G1U A59C, for which the self-cleavage came to 0.0892. The figure for G1U G48C is 0.0782; for G1U G48A it is 0.192. The value for G1U G48U was 0.079. The figure for G1U G3C is 0.0566; for G1U G3A it is 0.04.

Take G1U G3U: the self-cleavage was determined as 0.0448.

Take G1C C12A: the self-cleavage is 0.164. The value for G1C C12U was 0.252; that for G1C C12G was 0.238.

Take G1C U46C: the self-cleavage amounted to 0.248. The value for G1A G68A was 0.136; that for G1A G68U was 0.159; that for G1A G68C was 0.222. The value for G1U G56U was 0.108. The figure for G1U G56C is 0.105; for G1U C29A it is 0.111; for G1U C29U it is 0.0573. With G1U C29G, the self-cleavage was 0.0597. The value for G1C U53G was 0.232; that for G1C U53A was 0.225.
